Measurements: patent publication US20200384107A1 (PRIMATOPE THERAPEUTICS, published 2020)

T1: rhesus CD40-MBP fusion (rhesus macaque (M. mulatta), UniProt P25942 21-120 (human entry))
T1 construct: also called CD40-MBP fusions of rhesus
T1 chain: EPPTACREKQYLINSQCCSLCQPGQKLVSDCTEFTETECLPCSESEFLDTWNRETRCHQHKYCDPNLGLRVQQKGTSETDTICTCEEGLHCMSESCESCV


How the values were obtained:
[1] = target: T2, human CD40, recombinant / purified (human, UniProt P25942 21-193, limits assumed); test: kinetics on human CD40; Biacore by paragraph 276, Forte Bio with biotinylated CD40 on streptavidin biosensors by paragraph 270
T2 construct: also called hCD40; purified CD40

[2] = target: T3, baboon CD40-MBP fusion (baboon, UniProt P0AEX9 27-392 = MBP); test: BIACore 3000, h2C10 amine-coupled to a CM5 chip, baboon CD40-MBP injected at 0-160 nM
T3 construct: also called CD40-MBP fusions of baboon; not shown: baboon CD40 part of the MBP fusion
Experimental: (§1) Humanized 2C10 antibodies (h2C10) were immobilized to the surface of CM5 chip by amine coupling. Different concentrations of CD40-MBP fusions of human, rhesus, and baboon were analyzed for affinity on a BIACore 3000. The binding affinity was calculated with BIAevaluation software version 4.1.1.

[3] = target: T4, human CD40-MBP fusion (human, UniProt P25942 21-193; P0AEX9 27-392 = MBP, limits assumed); test: BIACore 3000, h2C10 amine-coupled to a CM5 chip, human CD40-MBP injected at 0-160 nM
T4 construct: also called CD40-MBP fusions of human
Experimental: as §1

[4] = target: T2, human CD40, recombinant / purified; test: kinetics on human CD40, compared with parent 2C10
[5] = target: T2, human CD40, recombinant / purified; test: CD40 binding affinity, method not given; reference murine 2C10
[6] = target: T2, human CD40, recombinant / purified; test: kinetics on human CD40, compared with murine 2C10
[7] = target: T1, rhesus CD40-MBP fusion; test: BIACore 3000, h2C10 amine-coupled to a CM5 chip, rhesus CD40-MBP injected at 0-160 nM
Experimental: as §1

[8] = target: T5, human CD40 on human blood B cells (CD20+ cells of PBMCs) (human, UniProt P25942 21-277); test: flow cytometry blocking assay: human B cells incubated with 2C10, then with histidine-tagged soluble CD154, read by histidine staining
T5 construct: whole, on cells; also called human CD20+ B cells; human B cells
Experimental: To assess the ability of 2C10 to bind to both rhesus and human CD40, recombinantly expressed human or rhesus CD40 were adsorbed to ELISA plates and reacted with varying concentrations of 2C10. Binding of 2C10 to CD40 was detected using goat anti-mouse IgG-HRP in an ELISA. […] To confirm the ability of 2C10 to block binding of its cognate ligand, CD154, rhesus and human B cells were incubated with escalating concentrations of 2C10 or an isotype control and then incubated with histidine-tagged soluble CD154 (R&D Systems, Minneapolis, Minn.) and analyzed for histidine expression.

[9] = target: T6, CD40 (as in Table 2, species and form not stated); test: binding kinetics, method not stated
T6 construct: also called CD40 Receptor

| Binder | Kd [1] | koff [1] | kon [1] | Kd [2] | Kd [3] | fold reduction in affinity relative to the parent 2C10 mAb [4] | fold of the affinity of murine 2C10 [5] | fold of affinity against murine 2C10 [6] | Kd [7] | IC50 (read off the curve) [8] | Kd [9] | koff [9] | kon [9] |
| --- | --- | --- | --- | --- | --- | --- | --- | --- | --- | --- | --- | --- | --- |
| humanized 2C10, clone 2.189.2 (2C10_h3 + 2C10_l2) (antibody, V domains shown, also called h2C10; mAb 2.189.2) VH: QVQLVQSGAEVKKPGASVKVSCKASGYTFTNYWMHWVRQAPGQRLEWIGYINPSNDYTKYNQKFKDRATLTADKSANTAYMELSSLRSEDTAVYYCARQGFPYWGQGTLVTVSS VL: EIVLTQSPATLSLSPGERATLSCSASSSVSYMHWYQQKPGQAPRRWIYDTSKLASGVPARFSGSGSGTDYTLTISSLEPEDFAVYYCHQLSSDPFTFGGGTKVEIK | 0.39 nM | 0.000128 s⁻¹ | 179000 M⁻¹ s⁻¹ | 2.57 nM | 4.72 nM | ~2 fold | ≤ 2 fold | ≤ 2 fold | 2.61 nM |  |  |  |  |
| 2C10 (murine anti-CD40 monoclonal antibody) (antibody, V domains shown, In some assays it was conjugated to a fluorochrome (APC); also called murine 2C10; parent 2C10 mAb) VH: QVQLQQSGAELAKPGASVKMSCKASGYTFTNYWMHWVKQRPGQGLEWIGYINPSNDYTKYNQKFKDKATLTADKSSNTAYMQLGSLTSEDSAVYYCARQGFPYWGQGTLVTVSA VL: QIVLTQSPAIMSASPGEKVTMTCSASSSVSYMHWYHQRSGTSPKRWIYDTSKLASGVPARFSGSGSGTSYSLTISSMEAEDAATYYCHQLSSDPFTFGSGTKLEIK | 0.222 nM | 6.01e-05 s⁻¹ | 148000 M⁻¹ s⁻¹ |  |  |  |  |  |  | ~1 µg/mL | 0.273 nM | 1.86e-06 s⁻¹ | 2730 M⁻¹ s⁻¹ |
